Reference: article PMC10308326

How the values were obtained:
[1] = tested on: TALE tetM_611 (16 bp recognition) (engineered TALE (AvrBs3 scaffold in pMAL-c2X, repeats replaced; Xanthomonas?)); test: EMSA; details: EMSA: 12 mM Tris, 60 mM KCl, 2 mM DTT, 0.1 mg/mL BSA, 30% glycerol, 5 mM MgCl2, 0.2 mM EDTA, RT 1 h then 4 °C 30 min, TALE 0.03-200 nM; GO assay: TALE storage …
[2] = tested on: TALE tetM_1298 (14 bp recognition) (engineered TALE (AvrBs3 scaffold in pMAL-c2X, repeats replaced; Xanthomonas?)); test: EMSA; details: EMSA: 12 mM Tris, 60 mM KCl, 2 mM DTT, 0.1 mg/mL BSA, 30% glycerol, 5 mM MgCl2, 0.2 mM EDTA, RT 1 h then 4 °C 30 min, TALE 0.03-200 nM; GO assay: TALE storage …

Sequence	Kd [1]	Kd [2]
GCGTGTTCTCTGTTCCCTCGCG / TTTTTTTTTTTTTTTCGCGAGGGAACAGAGAACACGC [tetM_611 EMSA oligo]	4.6 nM	
GCGCCTTTCTGGGCTTCGCG / TTTTTTTTTTTTTTTCGCGAAGCCCAGAAAGGCGC [tetM_1298 EMSA oligo]		1.2 nM
